Laboratory results from US20190106487A1 (Sanofi, published 2019).
Residue numbers refer to the chain shown, from its start.

T1: human IL-1RAcP on 293T/17-FR cells (human, UniProt Q9NPH3 21-570)
T1 sequence (looked up): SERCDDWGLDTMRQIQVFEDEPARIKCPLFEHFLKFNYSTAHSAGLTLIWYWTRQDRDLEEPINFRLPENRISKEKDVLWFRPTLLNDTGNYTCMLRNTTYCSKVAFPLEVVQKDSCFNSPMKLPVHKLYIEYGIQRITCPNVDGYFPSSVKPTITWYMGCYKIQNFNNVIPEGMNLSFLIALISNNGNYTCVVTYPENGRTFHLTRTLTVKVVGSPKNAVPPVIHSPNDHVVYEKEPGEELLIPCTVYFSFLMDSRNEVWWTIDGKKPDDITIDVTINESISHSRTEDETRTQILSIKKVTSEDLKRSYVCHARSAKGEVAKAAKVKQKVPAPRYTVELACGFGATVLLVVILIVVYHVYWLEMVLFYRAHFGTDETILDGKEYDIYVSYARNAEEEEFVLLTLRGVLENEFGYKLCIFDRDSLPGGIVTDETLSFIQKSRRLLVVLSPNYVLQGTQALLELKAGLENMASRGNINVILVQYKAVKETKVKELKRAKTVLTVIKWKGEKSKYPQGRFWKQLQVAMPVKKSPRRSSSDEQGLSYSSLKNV

T2: rhIL-1RAcP/Fc Chimera (human, UniProt Q9NPH3 21-359)
T2 construct: also called P013_03; P013-03
T2 sequence (looked up): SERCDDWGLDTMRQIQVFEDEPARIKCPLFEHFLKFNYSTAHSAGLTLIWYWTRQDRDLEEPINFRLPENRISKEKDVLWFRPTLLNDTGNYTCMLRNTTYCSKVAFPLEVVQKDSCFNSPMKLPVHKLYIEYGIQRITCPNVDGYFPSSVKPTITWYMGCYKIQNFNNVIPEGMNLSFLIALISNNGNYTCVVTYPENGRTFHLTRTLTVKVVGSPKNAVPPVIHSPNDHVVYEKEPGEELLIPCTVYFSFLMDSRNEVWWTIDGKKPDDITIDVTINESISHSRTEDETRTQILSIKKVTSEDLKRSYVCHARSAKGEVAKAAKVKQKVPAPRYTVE

T3: mIL1RAcP-Fc (murine, UniProt Q61730 21-359)
T3 construct: also called P013_04; P013-04
T3 sequence (looked up): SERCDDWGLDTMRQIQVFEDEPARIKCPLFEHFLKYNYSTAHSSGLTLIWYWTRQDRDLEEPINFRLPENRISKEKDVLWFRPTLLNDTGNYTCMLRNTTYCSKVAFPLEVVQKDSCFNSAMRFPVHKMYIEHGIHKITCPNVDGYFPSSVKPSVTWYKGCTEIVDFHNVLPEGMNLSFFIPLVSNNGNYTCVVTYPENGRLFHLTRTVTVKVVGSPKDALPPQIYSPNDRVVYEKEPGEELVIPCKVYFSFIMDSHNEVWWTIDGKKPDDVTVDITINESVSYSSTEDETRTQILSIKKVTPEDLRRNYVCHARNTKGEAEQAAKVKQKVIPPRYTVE

B1: P013.S.01.B.G04 (antibody, V domains shown)
VH: QSVEESGGRLVTPGTPLTLTCTVSGFSLSVYAMGWFRQAPGKGLEWIGDIYIASDGTWYANWAKGRFTISKTSTTVDLKITSPTTEDTATYFCAREIDAGYVGYGFNLWGQGTLVTVSS
VL: AQALTQTPSPVSAAVGGTVTINCQSSQSVYSDYLGWYQQKPGQPPKLLIYWASKLETGVPSRFKGSGSGTQFTLTISGVQSDDAATYYCQATYYGSGWYRAFGGGTEVVVK
notes: rabbit monoclonal antibody; also called P013.A.00013.G06
B2: P013.S.01.B.A06 (antibody, V domains shown)
VH: QSLEESGGRLVTPGTPLTLSCKVSGFSLSSYDMSWVRQTPGKGLEWIGTIYIGGTTAYASWPKGRFTISKTSTTVDLKITSPTKEDTATYFCARLQGANYYNSLALWGQGTLVTVSS
VL: DVVMTQTPASVSEPVGGTVTIKCQASQSIYSFLSWYQQKPGQPPKLLIYAASDLESGVPSRFSGSGYGTEFTLTISDLESADAATYYCQCNYIIDYGAFGGGTEVVVK
notes: rabbit monoclonal antibody; also called P013.A.00133.B12
B3: P013.S.01.B.G03 (antibody, V domains shown)
VH: QEQLVESGGGLVQPEGSLTLTCKASGFDFSSNYYMCWVRQAPGKGLELIACIYTNSGNTWSASWAKGRFTISKTSSTTVTLQMTSLTAADTATYFCARDLNYPDTSNLWGQGTLVTVSS
VL: DIVMTQTPASVEAAVGGTVTIKCQASQSIGYYLAWYQQKPGQPPKLLISRASTLASGVPSRFKGSGSGTQFTLTISDLESADVATYYCQSYYNSDSDAFGGGTEVVVK
notes: rabbit monoclonal antibody; also called P013.A.00030.C03
B4: P013.S.02.B.A05 (antibody, V domains shown)
VH: QEQLVESGGGLVQPEGSLTLTCQASGFTFSSYYVICWVRQAPGKGLEWIACIGTGDGLTYYASWAKGRFTISKTSSTTVTLQMTSLTAADTATYFCARDRYATVSGILNLWGPGTLVTVSS
VL: DVVMTQTPASVEAAVGGTVTIKCQASQNIYSNCAWYQQKLGQRPKLLIYYVSTLESGVPSRFEGSGYGTEFTLTISDLQSADAATYYCQYTYDSSSSTSWAFGGGTEVVVK
notes: rabbit monoclonal antibody; also called P013.A.00031.D11
B5: P013.S.01.B.H05 (antibody, V domains shown)
VH: LEQSGGGAEGGLVKPGGSLELCCKASGFSLSNSYWICWVRQAPGKGLEWIGCIYVGSSGSTYYASWVNGRFTLSRDIDQSTGCLQLNSLTAADTAIYYCARDGATSTSGHLFELWGQGTLVTVSS
VL: ALVMTQTPSPVSAAVGGTVTINCQASEDIYSNLAWFQQKPGQPPKLLIYRASTLASGVPSRFSGSGSGTEFTLTISGVQSDDAATYYCLGIYTYISADGSLYNAFGGGTEVVVK
notes: rabbit monoclonal antibody; also called P013.A.00109.F08
B6: P013.S.01.B.H06 (antibody, V domains shown)
VH: LEQSGGGGEGGLVKPGGSLELCCKASGFSLSSSYWICWVRQAPGKGLEWIGCIYVGSSGSTYYASWVSGRFTLSRDIDQSTGCLQLNSLTAADTAMYYCARDIYGSTNGYDLWGQGTLVTVSS
VL: B5 VL with R50Q, T53K, V78L, A83V, I91V, Y92G, A97G, Y102D
notes: rabbit monoclonal antibody; also called P013.A.00086.B03
B7: P013.S.02.B.B02 (antibody, V domains shown)
VH: LAQSGGGAEGGLVKPGGSLELCCEASGFSLSSSYWICWVRQAPGKGLEWIGCIYTGSSGNTYYASWVNGRFTLSRDIDRSTGCLQLNSLTAADTAMYYCARDANSHYMMNLWGQGTLVTVSS
VL: ALVMTQTPSPVSAAVGGTVTINCQASEDIYSNLAWFQQKPGQPPKLLIYDASTLASGVPSRFSGSGSGTEFTLTISGLQSDDAATYYCLGVYTYISADGTLVYNAFGGGTEVVVR
notes: rabbit monoclonal antibody; also called P013.A.00045.H10
B8: P013.S.02.B.B03 (antibody, V domains shown)
VH: QEQLEESGGDLVKPEGSLTLTCTASGFSFSSNYWICWVRQAPGKGLELIACIYTSTGNTWYASWAKGRFTISKTSSTTVTLQMTSLTVADTATYFCARDLLVVTSFNLWGQGTLVTVSS
VL: ALVMTQTPSPVSAAVGGTVTINCQASEDIYSNLAWFQQKPGQPPKLLIYGASTLASGVPSRFSGSGSGTEFTLTISGVQSDDAATYYCLGVCTDISTDDLYNAFGGGTELVVK
notes: rabbit monoclonal antibody; also called P013.A.00045.F11
B9: P013.S.02.B.F04 (antibody, V domains shown)
VH: B8 VH with E5V, L48W, G57D, N58T, W60Y, A62P, S63N, V88A
VL: B8 VL with T97A, A103T, L110V
notes: rabbit monoclonal antibody; also called P013.A.00109.B02
B10: P013.S.01.B.F05 (antibody, V domains shown)
VH: QSLEESGGRLVTPGGSLTLTCTVSGIDLSNYAMSWVRQAPGKGLEWIGSVISGGSTYYATWAKGRFTISKTSTTVDLKMTSLTTEDTATYFCARGCPGYNGDKYALDLWGPGTVVTVSS
VL: AFEMTQTPSSVSEPVGGTVTIKCQASQSIHNYLSWYQQKPGQRPKLLIYRASTLASGVPSRFKGSGSGTEFTLTISGVESADAATYYCQQGATSYDIDNAFGGGTEVVVK
notes: rabbit monoclonal antibody; also called P013.A.00087.C06

Target: T1, human IL-1RAcP on 293T/17-FR cells
Assay: cell-based or functional assay

functional reporter gene assay (% inhibition), 0.04 µg/mL mAb [%]	functional reporter gene assay (% inhibition), 0.2 µg/mL mAb [%]	functional reporter gene assay (% inhibition), 1 µg/mL mAb [%]	functional reporter gene assay (% inhibition), 5 µg/mL mAb [%]	primary supernatant functional assay (% inh.), NF-kB luciferase reporter [%]	Binder
15	51	84	95	99	B1
14	85	99	100	96	B2
38	51	82	92	89	B3
-16	42	47	48	80	B4
20	47	88	90	95	B5
18	47	88	96	91	B6
26	37	33	87	95	B7
17	31	78	89	94	B8
21	6	81	96	93	B9
44	54	70	80	89	B10

Target: T2, rhIL-1RAcP/Fc Chimera
Assay: ELISA, recombinant purified mAb

EC50 [µg/mL]	Binder
0.255	B1
0.027	B2
0.144	B3
0.362	B4
0.485	B5
0.064	B6
0.359	B7
0.287	B8
0.497	B9
0.052	B10

Target: T2, rhIL-1RAcP/Fc Chimera
Assay: ELISA, primary supernatant, coated hu-IL-1RAcP-Fc
Procedure, shortened: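 Plates coated with 0.5 μg/mL Fc-tagged human IL-1RAcP; rabbit B-cell supernatant antibodies detected by peroxidase anti-rabbit IgG Fab2 and TMB, absorbance 450/620 nm. Parallel IL12Rβ1-Fc coating served as counterscreen to exclude tag binders.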

hu-IL1RaP ELISA (OD)	Binder
3.4	B1
3.5	B2
3.2	B3
3.6	B4
3.3	B5
3.6	B6
3.4	B7
3.8	B8
3.5	B9
3.6	B10

Target: T3, mIL1RAcP-Fc
Assay: ELISA, primary supernatant, coated mu-IL-1RAcP-Fc

mu-IL1RaP ELISA (OD)	Binder
0	B1
0	B2
0	B3
0	B4
0.4	B5
0	B6
-0.1	B7
-0.1	B8
0	B9
1.2	B10
